What all share (assay): SEC
A general note: In gel filtration, larger molecules generally elute earlier.

Series [1] addresses Sso MCM ▵A/HTH (lacking both the A domain and the HTH domain) (Sulfolobus solfataricus).
Series [2] concerns the target Sso MCM ▵A (lacking the N-terminal A domain) (Sulfolobus solfataricus).
The target in series [3] is Sso MCM AAA+ core domain (Sulfolobus solfataricus).
Series [4] concerns the target Sso MCM C-half (C-terminal half, AAA+ and HTH domains) (Sulfolobus solfataricus).
The series “SEC” deals with the molecule itself.

From article PMC1807962 (Nucleic Acids Research, 2007) come the findings set out here.

“And” between values parts separate entries of the source, which are not always exact repeats. Identical values can stand only once.

As a reminder, the stoichiometry N is a count of units in the complex or per binding partner. Molecule “Sso MCM ▵A/HTH (lacking both the A domain and the HTH domain) (domain or fragment)” returned a stoichiometry N in series [1] of 6. In series [2], “Sso MCM ▵A (lacking the N-terminal A domain) (domain or fragment)” gave a stoichiometry N of 6.

“Sso MCM AAA+ core domain (domain or fragment)” came in with a stoichiometry N in series [3] of 2.

“Sso MCM C-half (C-terminal half, AAA+ and HTH domains) (domain or fragment)”: the stoichiometry N in series [4] was 2.

B1: Sulfolobus solfataricus MCM, full-length, wild-type (natural protein)
chain: MEIPSKQIDYRDVFIEFLTTFKGNNNQNKYIERINELVAYRKKSLIIEFSDVLSFNENLAYEIINNTKIILPILEGALYDHILQLDPTYQRDIEKVHVRIVGIPRVIELRKIRSTDIGKLITIDGILVKVTPVKERIYKATYKHIHPDCMQEFEWPEDEEMPEVLEMPTICPKCGKPGQFRLIPEKTKLIDWQKAVIQERPEEVPSGQLPRQLEIILEDDLVDSARPGDRVKVTGILDIKQDSPVKRGSRAVFDIYMKVSSIEVSQKVLDEVIISEEDEKKIKDLAKDPWIRDRIISSIAPSIYGHWELKEALALALFGGVPKVLEDTRIRGDIHILIIGDPGTAKSQMLQFISRVAPRAVYTTGKGSTAAGLTAAVVREKGTGEYYLEAGALVLADGGIAVIDEIDKMRDEDRVAIHEAMEQQTVSIAKAGIVAKLNARAAVIAAGNPKFGRYISERPVSDNINLPPTILSRFDLIFILKDQPGEQDRELANYILDVHSGKSTKNIIDIDTLRKYIAYARKYVTPKITSEAKNLITDFFVEMRKKSSETPDSPILITPRQLEALIRISEAYAKMALKAEVTREDAERAINIMRLFLESVGVDMESGKIDIDTIMTGKPKSAREKMMKIIEIIDSLAVSSECAKVKDILKEAQQVGIEKSNIEKLLTDMRKSGIIYEAKPECYKKV
As to B1, the “stoichiometry N” value in “SEC” was ≤ 12 and 6.
